Assay results: patent US20250066490A1 (PROFOUNDBIO US, published 2025)

T1: CD70 ECD (antigen immobilized on the CM5 chip) (UniProt P32970 39-193)
T1 construct: extracellular domain; also called CD70 antigen
T1 sequence (looked up): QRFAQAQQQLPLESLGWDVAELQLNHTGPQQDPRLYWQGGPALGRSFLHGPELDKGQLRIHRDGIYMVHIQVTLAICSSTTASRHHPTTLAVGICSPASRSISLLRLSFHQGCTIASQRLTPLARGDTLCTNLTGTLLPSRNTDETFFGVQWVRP

T2: cynomolgus CD70 recombinant protein (cynomolgus, UniProt A0A2K5WTU9 39-190)
T2 construct: also called cyno-antigen; cynomolgus CD70 protein
T2 sequence: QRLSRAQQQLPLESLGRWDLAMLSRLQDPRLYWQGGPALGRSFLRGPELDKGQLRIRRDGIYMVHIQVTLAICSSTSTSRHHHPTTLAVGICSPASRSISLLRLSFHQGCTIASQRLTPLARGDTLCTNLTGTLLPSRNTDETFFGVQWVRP

T3: human CD70 expressed on the cell surface of tumor cell lines (human, UniProt P32970 1-193)
T3 sequence (looked up): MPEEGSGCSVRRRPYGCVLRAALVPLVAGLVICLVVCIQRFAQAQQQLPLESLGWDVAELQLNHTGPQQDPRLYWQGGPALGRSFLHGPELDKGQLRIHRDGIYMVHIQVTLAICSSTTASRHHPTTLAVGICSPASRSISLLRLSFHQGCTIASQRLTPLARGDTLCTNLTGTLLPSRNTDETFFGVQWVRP

T4: human CD70 extra-cellular domain (ECD) linked to His tag (human, UniProt P32970 39-193)
T4 construct: extracellular domain; also called Hu CD70; HU CD70; not shown: His tag
T4 sequence (looked up): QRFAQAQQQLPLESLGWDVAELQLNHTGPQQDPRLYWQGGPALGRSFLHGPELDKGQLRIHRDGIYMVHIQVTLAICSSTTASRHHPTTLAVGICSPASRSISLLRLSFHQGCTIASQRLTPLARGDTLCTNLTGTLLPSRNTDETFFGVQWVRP

T5: human CD70 recombinant protein (human, UniProt P32970 39-193, limits assumed)
T5 construct: May be the same reagent as ACRO CDL-H5246; also called CD70 protein
T5 sequence (looked up): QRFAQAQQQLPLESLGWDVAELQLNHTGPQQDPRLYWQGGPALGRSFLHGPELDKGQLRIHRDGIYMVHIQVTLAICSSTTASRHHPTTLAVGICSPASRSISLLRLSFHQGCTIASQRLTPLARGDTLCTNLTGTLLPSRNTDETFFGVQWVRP

B1: 1F6 (Vorsetuzumab), reference antibody, full IgG (antibody, V domains shown)
VH: QVQLVQSGAEVKKPGASVKVSCKASGYTFTNYGMNWVRQAPGQGLKWMGWINTYTGEPTYADAFKGRVTMTRDTSISTAYMELSRLRSDDTAVYYCARDYGDYGMDYWGQGTTVTVSS
VL: DIVMTQSPDSLAVSLGERATINCRASKSVSTSGYSFMHWYQQKPGQPPKLLIYLASNLESGVPDRFSGSGSGTDFTLTISSLQAEDVAVYYCQHSREVPWTFGQGTKVEIK
notes: also called h1F6; h1 F6
B2: 69A7 (parent antibody), full IgG (antibody, V domains shown)
VH: QVQLQESGPGLVKPSETLSLTCTVSGGSVSSDYYYWSWIRQPPGKGLEWLGYIYYSGSTNYNPSLKSRVTISVDTSKNQFSLKLRSVTTADTAVYYCARGDGDYGGNCFDYWGQGTLVTVSS
VL: EIVLTQSPATLSLSPGERATLSCRASQSVSSYLAWYQQKPGQAPRLLIFDASNRATGIPARFSGSGSGTDFTLTISSLEPEDFAVYYCQQRSNWPLTFGGGTKVEIK
notes: also called parent antibody 69A7
B3: 2D2, full IgG (antibody, V domains shown)
VH: QVQLQESGPGLVKPSETLSLTCTVSGGSVSSDYYYWSWIRQPPGKGLEWLGYIYYSGSTNYNPSLKSRVTISVDTSKNQFSLKLRSVTTADTAVYYCARGDGDYGGNCFDYWGQGTLVTVSS
VL: EIVLTQSPATLSLSPGERATLSCRASQSVSSYLAWYQQKPGQAPRLLIFDASNRATGIPARFSGSGSGTDFTLTISSLEPEDFAVYYCQQRLKFPLTFGGGTKVEIK
B4: 1H8, full IgG (antibody, V domains shown)
VH: QVQLQESGPGLVKPSETLSLTCTVSGGSVSSDYYYWSWIRQPPGKGLEWLGYIYYSGSTNYNPSLKSRVTISVDTSKNQFSLKLRSVTTADTAVYYCARGDGDFMGVCFDYWGQGTLVTVSS
VL: EIVLTQSPATLSLSPGERATLSCRASQSVSSYLAWYQQKPGQAPRLLIFDASNRATGIPARFSGSGSGTDFTLTISSLEPEDFAVYYCQQRSNWPLTFGGGTKVEIK
B5: 2A4, full IgG (antibody, V domains shown)
VH: QVQLQESGPGLVKPSETLSLTCTVSGGSVSSDYYYWSWIRQPPGKGLEWLGYIYYSGSTNYNPSLKSRVTISVDTSKNQFSLKLRSVTTADTAVYYCARGDGDYGGNVFPYWGQGTLVTVSS
VL: EIVLTQSPATLSLSPGERATLSCRASQSVSSYLAWYQQKPGQAPRLLIFDASNRATGIPARFSGSGSGTDFTLTISSLEPEDFAVYYCQQRSNWPLTFGGGTKVEIK

Columns and labels:
[1] = biological target: T1, CD70 ECD (antigen immobilized on the …); assay: SPR (Biacore T200), CD70 ECD on CM5 chip, IgG as analyte
Description: (§1) The immobilization of antigen CD70 ECD was performed at 25° C. with HBS-EP as the running buffer. Sensor chip surface of flow cells 1, 4 were activated by freshly mixed 50 mmol/L N-Hydroxy succinimide (NHS) and 200 mmol/L 1-ethyl-3-(3-dimethylaminopropyl) carbodiimide hydrochloride (EDC) for 420s (10 μL/min). Afterwards, CD70 antigen diluted in 10 mmol/L NaAC (pH 4.5) was injected into flow cell 4 to achieve conjugation of the appropriate Response Unit, while flow cell 1 was set as a blank. After the amine coupling reaction, the remaining active coupling sites on chip surface were blocked by 420s injection of 1 mol/L ethanolamine hydrochloride.
(§2) The assay was performed at 25° C. and the running buffer was HBS-EP. Diluted antibodies were injected over the surface of flow cells 1 and 4 during the association phase, followed by injecting running buffer as the dissociation phase. All the data were processed using Biacore T200 Evaluation software version 3.1. Flow cell 1 and a blank injection of buffer in each cycle were used as a double reference for Response Units subtraction. Kinetic data of the interaction between the antibodies and CD70 antigen were obtained through affinity measurement.

[2] = biological target: T2, cynomolgus CD70 recombinant protein; assay: ELISA, IgG titrated on coated cynomolgus CD70 recombinant protein (2 µg/ml), anti-human Fc-HRP, OD450
Description: (§3) The binding specificity of the CD70 antibodies was tested by ELISA according to a standard protocol. Briefly, 96-well micro-plates were coated with 2 μg/ml of human or cynomolgus CD70 recombinant protein in PBS at 100 μl per well and incubated overnight at 4° C. The plates were washed twice with TBS+0.5% Tween20. 200 μL of blocking buffer (2% BSA in PBS) was added to each well, and the plates were incubated at 37° C. for 2 hours. The plates were washed using the wash buffer mentioned above. Serially diluted antibodies were added to the ELISA plates using 100 μl per well, and the plates were incubated for 1 hour at room temperature. Then plates were washed 3 times. HRP conjugated anti-human Fc antibody solution (Sigma, I18885-2ML, diluted with blocking buffer) was added to the plates using 100 μl per well. The plates were incubated at room temperature for 1 hour and then washed 3 times. Then the TMB solution was added to plates using 100 μl per well and the plates were placed at RT for 5-15 mins. Then the stop solution (2M H2SO4) was added using 50 μl per well. The absorbance was measured at A450 and A630.

[3] = biological target: T3, human CD70 expressed on the cell …; assay: cell-based or functional assay
[4] = biological target: T3, human CD70 expressed on the cell …; assay: flow cytometry on U251 cells
Description: (§4) The lead antibodies were tested for binding to renal carcinoma cells and glioblastoma cells expressing CD70 on the cell surface by flow cytometry. […] U251 cells were cultured with MEM medium containing of 10% FBS and 1% NEAA+1 mM sodium pyruvate. DBTRG-05MG cells were cultured with DMEM medium (Gibco, Cat #C11995500BT) containing of 10% FBS. Each of the lead antibodies and the controls were incubated for 30 mins with the different cell lines (3×10⁵ cells per well) in 0.2 ml FACS buffer (1×PBS with 0.1% BSA) at 4° C. Then, the cells were pelleted, washed, and incubated at 4° C. for 30 mins with 100 μl of 1:200 diluted PE-conjugated anti human Fc (Abcam, Ab98596) in FACS buffer. The cells were pelleted again, washed with PBS, resuspended in FACS buffer and analyzed by flow cytometer (Beckman, CytoFLEX).
(§5) Antibodies 2H8 and 2D2 had slightly higher binding ability to the cell lines than that of antibody 69A7.

[5] = biological target: T3, human CD70 expressed on the cell …; assay: flow cytometry on 786-O cells
Description: as §4, §5

[6] = biological target: T3, human CD70 expressed on the cell …; assay: flow cytometry on Caki-1 cells
Description: as §4, §5

[7] = biological target: T3, human CD70 expressed on the cell …; assay: flow cytometry on DBTRG-05MG cells
Description: as §4, §5

[8] = biological target: T4, human CD70 extra-cellular domain (ECD) …; assay: BLI (Octet RED), antibody on anti-human Fc tips, CD70 ECD-His at 100 nM
Description: Recombinant proteins consisting of human, rat, or mouse CD70 extra-cellular domain (ECD) linked to His tag was purchased (from ACRO systems). 69A7 and 2E7 (20 nM) were immobilized on anti-human IgG Fc biosensor tips (ForteBio). Binding assays using one concentration (100 nM) of recombinant protein in solution were performed using Octet RED (ForteBio). Association time was set at 180s and dissociation time was set at 300s. Binding affinity was calculated using ForteBio Data Acquisition 6.3 software. Affinity was derived by fitting the kinetic data to a 1:1 Langmuir binding model utilizing global fitting algorithms. […] 2E7 had no cross-reactivity to rat or mouse CD70 (Table 10).

[9] = biological target: T3, human CD70 expressed on the cell …; assay: flow cytometry on U251 cells, PE anti-human Fc, MFI; same fit as Table 6, which prints it in nM
Description: as §4, §5

[10] = biological target: T5, human CD70 recombinant protein; assay: ELISA, IgG titrated on coated human CD70 recombinant protein (2 µg/ml), anti-human Fc-HRP, OD450
Description: as §3

[11] = biological target: T3, human CD70 expressed on the cell …; assay: flow cytometry on 786-O cells, PE anti-human Fc, MFI; same fit as Table 6, which prints it in nM
Description: as §4, §5

[12] = biological target: T3, human CD70 expressed on the cell …; assay: flow cytometry on Caki-1 cells, PE anti-human Fc, MFI; same fit as Table 6, which prints it in nM
Description: as §4, §5

[13] = biological target: T3, human CD70 expressed on the cell …; assay: flow cytometry on DBTRG-05MG cells, PE anti-human Fc, MFI; same fit as Table 6, which prints it in nM
Description: as §4, §5

[14] = biological target: T1, CD70 ECD (antigen immobilized on the …); assay: SPR (Biacore T200), CD70 ECD on CM5 chip; lower end tied to 2D2 by the KD values of Table 8
Description: as §1, §2

Binder	Kd [1]	koff [1]	kon [1]	EC50 [2]	Internalization rate (%) on 786-O [3]	Internalization rate (%) on Caki-1 [3]	EC50 [4]	EC50 [5]	EC50 [6]	EC50 [7]	Kd [8]	koff [8]	kon [8]	EC50 [9]	EC50 [10]	EC50 [11]	EC50 [12]	EC50 [13]	fold improved affinity against parent antibody 69A7 [14]
B1	52.3 nM	0.00236 s⁻¹	45100 M⁻¹ s⁻¹	0.00284 µg/mL															
B2	313 nM	0.00198 s⁻¹	6330 M⁻¹ s⁻¹	0.0104 µg/mL	64%	27%	8.11 nM	6.49 nM	9.89 nM	11.3 nM	2.89 nM	0.000978 s⁻¹	339000 M⁻¹ s⁻¹	1.22 µg/mL	0.278 µg/mL	0.973 µg/mL	1.48 µg/mL	1.7 µg/mL	
B3	89.6 nM	0.00105 s⁻¹	11700 M⁻¹ s⁻¹	0.00424 µg/mL	76%	53%	7.38 nM	5.62 nM	5.98 nM	13.7 nM				1.11 µg/mL	0.087 µg/mL	0.842 µg/mL	0.896 µg/mL	2.06 µg/mL	3 to 8 fold
B4	43.7 nM	0.00112 s⁻¹	25600 M⁻¹ s⁻¹	0.00326 µg/mL	76%	62%	7.99 nM	5.12 nM	5.65 nM	9.6 nM				1.2 µg/mL	0.0595 µg/mL	0.767 µg/mL	0.847 µg/mL	1.44 µg/mL	
B5					49%	20%		142 nM	284 nM	494 nM					9.1 µg/mL	21.3 µg/mL			
